The text below walks through data of PMC3700227.

In the assay the target is Cladosporium fulvum LysM effector Ecp6 (extracellular protein 6), produced in Pichia pastoris (Cladosporium fulvum) (UniProt B3VBK9). Briefly: SEC. (In general: Size exclusion chromatography separates by hydrodynamic size, large species first.)

“Cladosporium fulvum LysM effector Ecp6 (extracellular protein 6), produced in Pichia pastoris (from UniProt B3VBK9) (natural protein)” showed a stoichiometry N of 2.

One may read the stoichiometry N as a count of units in the complex or per binding partner.
